# From PMC5657617, “The GYF domain protein PSIG1 dampens the induction of cell death during plant-pathogen interactions” (PLoS Genetics, 2017)
# B1: HisMBP-SMG7 (natural protein, Arabidopsis thaliana, UniProt A9QM73 1-1059, looked up)
# chain: MMTLQMDKTTASSSWERAKSIYDEIAELANKRQKAGNPPDPNLLQLLREKYEAIILESHTFSEQHNIEIPLWQLHYKRIEYFRLHINRVLASSTSTAAQNVKGPSKAEQIAQLKLQFRTFLSEATGFYHDMILKIRSKYGLPLGSFSEDQQSQNLSDKDGKELAEVQKALKSCHRCLIYLGDLARYKGMYAEGDSRSRQYASASSYYLQAASLWPASGNPHHQLAIVASYSRDEFVTTYRYFRSLAVEYPFPTARDNLIVAFDKNRQSYEKLFVPSKDSSKRLTGKGRGKGADISLKDATLVAGPEKDKVTIANEMLKAFSIRFVHLNGILFTRTSLETFFDVLASTSSSLREVISLGSAKELTLGIDTSDSALFIVRVVTMLIFSVHNSKKETEGQSYAEIVQRVEPARNSLTASFELLGLVIEKCVQLGDPSSSYFLPGVLVFVEWLACCPDIALGSDPDDRQTAVRNSFWNQFVVFFNQVLSLGPTFIDDVEDETCFSNMSLYDERETENRLALWEDYELRGFLPLLPAQTILNFSRKHSFGTEGPKEKKARIKRIFAAGKALTSVIKVDQNHVYFDSKKKKFLVGVKPADDFLDSHSSPPKACNALQDNQVMIDHNSPIMQLDQQIYMGEEDDDDEVIVFKPLVTEKRKEASDQIYVPSGGFRKSDQVTTMGDFKALSGSDVAFHENQILQARGNASIQVPASVGANLLGPLQPSTQSQAMHMQQVQTQVQVPASVGANLLGLLLTSTQSQAMHMQQVQTQAVNPQPAQSLAASRLQPIQSQVAQPLPSRVVHFQQTQAQVSHVSPAHSQSTSFGGGSKWSPEEAASLASSLSGFAQLGNGHVMRNEMQGNHGVSYYPAHSLPVHQSYNGNGMGGMPYSQSRTPEAVFPPKIDPVLSSGVVADGLGVQSSLAKKNPISRAFRHLGPPPGFNSVPAKLQKEPAPGSELSGNNHLPVDDYSWLDGYQAQSSRGVGLNSSLNYATSGKPEHLGSTGNGLNGPANFPFPGKQVPTSQVQADFPYFQNPQKDNFVDKNHQSTQLPEQYQGQSTWSSRHFV
# notes: SMG7, Arabidopsis thaliana, At5g19400; open reading frame amplified from Arabidopsis seedling (Col-8) cDNA; residues 1-1059 by the limits of its two halves; also called AtSMG7; HisMBP-tagged SMG7; source: Escherichia coli Rosetta-gami 2 (DE3), purified (Dextrin-Sepharose)
# Legend:
# [1] = molecular target: T1, GST-PSIG1 (PLANT SMY2-TYPE ILE-GYF DOMAIN-CONTAINING PROTEIN 1, full length) (Arabidopsis thaliana, UniProt Q9FMM3 1-1714); experiment: pull-down; GST-PSIG1 proteins and HisMBP-SMG7 proteins mixed in 50 mM Tris-HCl pH 7.5, 150 mM NaCl, 1 mM DTT, 0.1% Triton X-100; Glutathione-Sepharose beads, 2 h at 4°C; washed three times with 300 mM NaCl buffer; detected by anti-His or anti-GST immunoblot or CBB; conditions: both partners purified
# T1 construct: PSIG1 (EXA1/MUSE11), Arabidopsis thaliana, At5g42950; whole ORF cloned into pGEX4T-3; the text calls it full-length PSIG1; Vector pGEX4T-3, cloned between SalI and NotI sites; also called GST-tagged PSIG1; EXA1; source: Escherichia coli Rosetta-gami 2 (DE3), purified (Glutathione-Sepharose)
# [2] = molecular target: B1; experiment: as above; conditions: both partners purified
# T1 sequence (Q9FMM3 whole entry, the tested form may be a part): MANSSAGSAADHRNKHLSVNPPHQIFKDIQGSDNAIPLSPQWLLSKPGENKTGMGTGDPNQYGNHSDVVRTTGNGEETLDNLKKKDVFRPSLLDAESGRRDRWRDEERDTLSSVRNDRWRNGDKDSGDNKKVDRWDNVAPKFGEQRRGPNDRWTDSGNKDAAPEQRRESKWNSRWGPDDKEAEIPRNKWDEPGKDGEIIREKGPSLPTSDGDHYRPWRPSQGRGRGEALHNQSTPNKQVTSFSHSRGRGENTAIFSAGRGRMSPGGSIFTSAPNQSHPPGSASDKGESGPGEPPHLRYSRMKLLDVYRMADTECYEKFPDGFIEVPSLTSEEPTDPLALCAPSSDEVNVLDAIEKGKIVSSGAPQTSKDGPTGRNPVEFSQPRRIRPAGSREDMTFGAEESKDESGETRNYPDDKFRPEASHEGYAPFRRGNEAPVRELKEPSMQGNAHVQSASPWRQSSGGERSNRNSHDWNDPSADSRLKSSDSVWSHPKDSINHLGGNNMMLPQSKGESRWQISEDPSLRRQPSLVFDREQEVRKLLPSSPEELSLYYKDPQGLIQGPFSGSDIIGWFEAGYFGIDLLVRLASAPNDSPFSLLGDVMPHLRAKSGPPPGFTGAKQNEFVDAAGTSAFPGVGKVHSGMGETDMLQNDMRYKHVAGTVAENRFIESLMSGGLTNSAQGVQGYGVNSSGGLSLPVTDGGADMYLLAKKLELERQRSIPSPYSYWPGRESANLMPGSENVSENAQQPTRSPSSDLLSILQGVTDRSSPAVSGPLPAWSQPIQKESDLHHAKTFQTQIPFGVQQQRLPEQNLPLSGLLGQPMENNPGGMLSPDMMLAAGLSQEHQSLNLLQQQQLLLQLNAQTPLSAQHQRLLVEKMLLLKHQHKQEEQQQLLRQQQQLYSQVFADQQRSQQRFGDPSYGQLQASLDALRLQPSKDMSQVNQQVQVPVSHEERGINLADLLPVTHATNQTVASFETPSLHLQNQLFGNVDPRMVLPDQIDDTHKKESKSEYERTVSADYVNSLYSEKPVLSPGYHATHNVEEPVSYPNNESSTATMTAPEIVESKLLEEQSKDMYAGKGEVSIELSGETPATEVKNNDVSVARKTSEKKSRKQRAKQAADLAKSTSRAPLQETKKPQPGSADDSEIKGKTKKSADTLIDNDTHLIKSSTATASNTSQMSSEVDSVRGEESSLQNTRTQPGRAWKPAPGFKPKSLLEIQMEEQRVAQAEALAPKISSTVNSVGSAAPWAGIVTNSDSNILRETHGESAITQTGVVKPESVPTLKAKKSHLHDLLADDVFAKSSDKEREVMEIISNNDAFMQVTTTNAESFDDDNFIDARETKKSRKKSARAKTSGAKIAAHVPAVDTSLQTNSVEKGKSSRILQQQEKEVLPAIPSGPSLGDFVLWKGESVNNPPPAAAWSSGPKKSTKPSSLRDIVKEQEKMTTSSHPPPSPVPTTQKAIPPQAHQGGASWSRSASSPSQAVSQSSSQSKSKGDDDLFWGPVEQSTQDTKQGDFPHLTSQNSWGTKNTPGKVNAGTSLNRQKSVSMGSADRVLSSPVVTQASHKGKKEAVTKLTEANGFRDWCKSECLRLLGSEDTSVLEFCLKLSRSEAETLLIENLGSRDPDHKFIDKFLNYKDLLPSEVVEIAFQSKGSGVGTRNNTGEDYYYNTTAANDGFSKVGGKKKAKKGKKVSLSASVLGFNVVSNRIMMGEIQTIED
binder,measurement,setting,value
B1,binding result,[1],binds
"GST-PSIG1^1-606 (domain or fragment, PSIG1, Arabidopsis thaliana, At5g42950, residues 1-606, with the GYF domain and without its own PPGF motif; Vector pGEX4T-3; source: Escherichia coli Rosetta-gami 2 (DE3), purified (Glutathione-Sepharose)) not shown",binding result,[2],binds
"HisMBP-SMG7-C (domain or fragment, Arabidopsis thaliana, UniProt A9QM73 549-1059, looked up, also called AtSMG7-C (549-1059); C-terminal half of SMG7; source: Escherichia coli Rosetta-gami 2 (DE3), purified (Dextrin-Sepharose)) PKEKKARIKRIFAAGKALTSVIKVDQNHVYFDSKKKKFLVGVKPADDFLDSHSSPPKACNALQDNQVMIDHNSPIMQLDQQIYMGEEDDDDEVIVFKPLVTEKRKEASDQIYVPSGGFRKSDQVTTMGDFKALSGSDVAFHENQILQARGNASIQVPASVGANLLGPLQPSTQSQAMHMQQVQTQVQVPASVGANLLGLLLTSTQSQAMHMQQVQTQAVNPQPAQSLAASRLQPIQSQVAQPLPSRVVHFQQTQAQVSHVSPAHSQSTSFGGGSKWSPEEAASLASSLSGFAQLGNGHVMRNEMQGNHGVSYYPAHSLPVHQSYNGNGMGGMPYSQSRTPEAVFPPKIDPVLSSGVVADGLGVQSSLAKKNPISRAFRHLGPPPGFNSVPAKLQKEPAPGSELSGNNHLPVDDYSWLDGYQAQSSRGVGLNSSLNYATSGKPEHLGSTGNGLNGPANFPFPGKQVPTSQVQADFPYFQNPQKDNFVDKNHQSTQLPEQYQGQSTWSSRHFV",binding result,[1],binds
